Residue numbers refer to the chain shown, from its start. Names and notes keep the numbering of the source.
B1: GLT8D1 (Homo sapiens) (protein)
chain: MSFRKVNIIILVLAVALFLLVLHHNFLSLSSLLRNEVTDSGIVGPQPIDFVPNALRHAVDGRQEEIPVVIAASEDRLGGAIAAINSIQHNTRSNVIFYIVTLNNTADHLRSWLNSDSLKSIRYKIVNFDPKLLEGKVKEDPDQGESMKPLTFARFYLPILVPSAKKAIYMDDDVIVQGDILALYNTALKPGHAAAFSEDCDSASTKVVIRGAGNQYNYIGYLDYKKERIRKLSMKASTCSFNPGVFVANLTEWKRQNITNQLEKWMKLNVEEGLYSRTLAGSITTPPLLIVFYQQHSTIDPMWNVRHLGSSAGKRYSPQFVKAAKLLHWNGHLKPWGRTASYTDVWEKWYIPDPTGKFNLIRRYTEISNIK
B2: GLT8D1 (Homo sapiens; R92C) (protein)
chain: B1 chain with R92C
B3: GLT8D1 (Homo sapiens; G78W) (protein)
chain: B1 chain with G78W

These proteins were tested on O=c1ccn([C@@H]2O[C@H](COP(=O)(O)OP(=O)(O)O[C@H]3O[C@H](CO)[C@H](O)[C@H](O)[C@H]3O)[C@@H](O)[C@H]2O)c(=O)[nH]1 (assay: UDP-Glo glycosyltransferase assay). Details: no acceptor, 50 mM Tris pH 7.5, 5 mM MnCl2, 37 °C, 60 min.
Assay type: biochemical, Homo sapiens
Protein B1 has a Km of 3500 µM. B2 was tested, and the Km was 2500 µM. Protein B3 has a Km of 2300 µM.
